Source: patent US20060233822A1 (YANG SHENG TANG, published 2006)

How the values were obtained:
NE2 mutant 599AE = target: T1, NE2 mutant 599AE (hepatitis E virus, UniProt P29326 394-603); assay: Western blot of NE2 mutant proteins with monoclonal antibody 16D7
T1 construct: position counted on HEV ORF2
T1 chain: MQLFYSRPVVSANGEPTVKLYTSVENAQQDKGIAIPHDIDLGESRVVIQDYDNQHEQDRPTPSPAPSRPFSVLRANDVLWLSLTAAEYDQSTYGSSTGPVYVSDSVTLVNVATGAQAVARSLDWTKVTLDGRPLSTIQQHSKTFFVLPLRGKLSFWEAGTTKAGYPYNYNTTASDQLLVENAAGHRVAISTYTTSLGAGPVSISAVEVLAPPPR

NE2 mutant 601LD = target: T2, NE2 mutant 601LD (hepatitis E virus, UniProt P29326 394-600); assay: as above
T2 construct: position counted on HEV ORF2
T2 chain: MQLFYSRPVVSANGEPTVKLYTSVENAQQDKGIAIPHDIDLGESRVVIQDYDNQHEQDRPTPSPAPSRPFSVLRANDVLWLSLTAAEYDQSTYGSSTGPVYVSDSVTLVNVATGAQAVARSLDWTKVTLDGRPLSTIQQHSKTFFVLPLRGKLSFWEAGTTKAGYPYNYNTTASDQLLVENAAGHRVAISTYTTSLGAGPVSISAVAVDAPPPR

NE2 mutant 598VE = target: T3, NE2 mutant 598VE (hepatitis E virus, UniProt P29326 394-603); assay: as above
T3 construct: position counted on HEV ORF2
T3 chain: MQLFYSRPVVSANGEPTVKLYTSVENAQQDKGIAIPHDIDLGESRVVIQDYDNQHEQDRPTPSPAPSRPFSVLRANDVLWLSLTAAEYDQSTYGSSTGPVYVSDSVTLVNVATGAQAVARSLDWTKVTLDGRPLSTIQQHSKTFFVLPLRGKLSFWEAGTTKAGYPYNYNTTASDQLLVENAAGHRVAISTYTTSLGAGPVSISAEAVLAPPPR

NE2 mutant 601LK = target: T4, NE2 mutant 601LK (hepatitis E virus, UniProt P29326 394-600); assay: as above
T4 construct: position counted on HEV ORF2
T4 chain: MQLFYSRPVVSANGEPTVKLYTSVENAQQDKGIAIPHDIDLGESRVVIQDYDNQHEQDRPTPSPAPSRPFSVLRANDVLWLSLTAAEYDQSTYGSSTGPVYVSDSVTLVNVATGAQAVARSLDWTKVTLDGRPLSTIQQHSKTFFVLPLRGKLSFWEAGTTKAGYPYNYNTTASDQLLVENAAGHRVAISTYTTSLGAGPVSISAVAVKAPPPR

7-peptide YQDSAKT = assay: phage display panning on coated MAb; 3 clones
7-peptide QPATWNT = assay: phage display panning on coated MAb; 1 clone
7-peptide TNLRLDS = assay: phage display panning on coated MAb; 1 clone
7-peptide GGWGPFA = assay: phage display panning on coated MAb; 1 clone
7-peptide MLWGPSD = assay: phage display panning on coated MAb; 1 clone
7-peptide ALWGPTS = assay: phage display panning on coated MAb; 1 clone
polypeptide 239 = target: T5, polypeptide 239 (hepatitis E virus, UniProt P29326 368-603); assay: Western blot
T5 sequence: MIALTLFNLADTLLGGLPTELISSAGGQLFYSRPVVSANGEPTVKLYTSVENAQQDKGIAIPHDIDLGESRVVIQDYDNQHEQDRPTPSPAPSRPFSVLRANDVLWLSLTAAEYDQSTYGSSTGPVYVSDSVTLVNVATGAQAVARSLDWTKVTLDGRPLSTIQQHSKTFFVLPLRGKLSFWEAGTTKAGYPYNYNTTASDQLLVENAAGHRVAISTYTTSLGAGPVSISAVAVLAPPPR

Measured: binding result

B1: monoclonal antibody 16D7 (antibody, V domains shown)
VH: EVQLQQSGPELVKPGASVKMSCKASGYKFTSYVMHWVKQKPGQGLEWIGYINPSNDNIKYNEKFKGKAILTLDKSSSTAYMAFSSLTSEDSAVYYCATLTGVDYWGQGTTLTVSS
VL: DVVMTQTPLSLSVTIGQPASISCKSSQSLLYRNGKIYLNWLQQRPGQAPKHLMSQVSKLDPGIPDRFSGSGSETDFTLKISRVEAEDLGVYYCLQGTHYPYTFGGGTKLEIKR
notes: also called MAb 16D7; HRP-16D7
binds: all assays above
